Experimental data from patent publication US20140154252A1 (EMERGENT PRODUCT DEVELOPMENT SEATTLE, published 2014).

T1: CD20 (human, UniProt P11836 1-297)
T1 construct: whole, on cells; 2H7 is called murine anti-human CD20; also called CD20 presented on WIL-2S cells; CD20 on Ramos, BJAB, SU-DHL-6 and DoHH2 B cells
T1 sequence (looked up): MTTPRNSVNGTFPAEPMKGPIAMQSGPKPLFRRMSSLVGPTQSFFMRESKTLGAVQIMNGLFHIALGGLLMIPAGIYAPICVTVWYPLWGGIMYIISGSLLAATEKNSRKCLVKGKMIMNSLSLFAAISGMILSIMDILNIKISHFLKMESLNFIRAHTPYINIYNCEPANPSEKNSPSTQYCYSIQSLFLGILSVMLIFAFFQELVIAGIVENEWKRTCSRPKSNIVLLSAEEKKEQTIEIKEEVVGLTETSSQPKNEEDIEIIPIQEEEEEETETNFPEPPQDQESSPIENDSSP


The binders below were run against T1, CD20 (assay: flow cytometry on WIL2-S cells (CD20), protein A purified protein at 0.72 ug/ml, FITC goat anti-human IgG).
Description: “L1-L6” refers to the 2H7-sss-hIgG-Lx-2e12 molecules where […] represents the L1-L6 linkers and the 2e12 V regions in the orientation of VL-VH. All the molecules were tested at a concentration of 0.72 μg/ml, and the binding detected using FITC conjugated goat anti-human IgG at 1:100.

Binder | binding result
2H7-sss-hIgG P238S/P331S-H5-2e12 VHVL (bispecific antibody, Assembled from modules as m11; also called 2H7-sss-hIgG-H5-2e12 HL) QIVLSQSPAILSASPGEKVTMTCRASSSVSYMHWYQQKPGSSPKPWIYAPSNLASGVPARFSGSGSGTSYSLTISRVEAEDAATYYCQQWSFNPPTFGAGTKLELKDGGGSGGGGSGGGGSSQAYLQQSGAESVRPGASVKMSCKASGYTFTSYNMHWVKQTPRQGLEWIGAIYPGNGDTSYNQKFKGKATLTVDKSSSTAYMQLSSLTSEDSAVYFCARVVYYSNSYWYFDVWGTGTTVTVSEPKSSDKTHTSPPSPAPELLGGSSVFLFPPKPKDTLMISRTPEVTCVVVDVSHEDPEVKFNWYVDGVEVHNAKTKPREEQYNSTYRVVSVLTVLHQDWLNGKEYKCKVSNKALPASIEKTISKAKGQPREPQVYTLPPSRDELTKNQVSLTCLVKGFYPSDIAVEWESNGQPENNYKTTPPVLDSDGSFFLYSKLTVDKSRWQQGNVFSCSVMHEALHNHYTQKSLSLSPGKNYGGGGSGGGGSGNSQVQLKESGPGLVAPSQSLSITCTVSGFSLTGYGVNWVRQPPGKGLEWLGMIWGDGSTDYNSALKSRLSITKDNSKSQVFLKMNSLQTDDTARYYCARDGYSNFHYYVMDYWGQGTSVTVSSGGGGSGGGGSGGGGSGGGGSDIVLTQSPASLAVSLGQRATISCRASESVEYYVTSLMQWYQQKPGQPPKLLISAASNVESGVPARFSGSGSGTDFSLNIHPVEEDDIAMYFCQQSRKVPWTFGGGTKLEIKR | binds
2H7-sss-hIgG P238S/P331S-H4-2e12 VHVL (bispecific antibody, Assembled from modules as m11; also called 2H7-sss-hIgG-H4-2e12 HL) QIVLSQSPAILSASPGEKVTMTCRASSSVSYMHWYQQKPGSSPKPWIYAPSNLASGVPARFSGSGSGTSYSLTISRVEAEDAATYYCQQWSFNPPTFGAGTKLELKDGGGSGGGGSGGGGSSQAYLQQSGAESVRPGASVKMSCKASGYTFTSYNMHWVKQTPRQGLEWIGAIYPGNGDTSYNQKFKGKATLTVDKSSSTAYMQLSSLTSEDSAVYFCARVVYYSNSYWYFDVWGTGTTVTVSEPKSSDKTHTSPPSPAPELLGGSSVFLFPPKPKDTLMISRTPEVTCVVVDVSHEDPEVKFNWYVDGVEVHNAKTKPREEQYNSTYRVVSVLTVLHQDWLNGKEYKCKVSNKALPASIEKTISKAKGQPREPQVYTLPPSRDELTKNQVSLTCLVKGFYPSDIAVEWESNGQPENNYKTTPPVLDSDGSFFLYSKLTVDKSRWQQGNVFSCSVMHEALHNHYTQKSLSLSPGKGGGGSGGGGSGNSQVQLKESGPGLVAPSQSLSITCTVSGFSLTGYGVNWVRQPPGKGLEWLGMIWGDGSTDYNSALKSRLSITKDNSKSQVFLKMNSLQTDDTARYYCARDGYSNFHYYVMDYWGQGTSVTVSSGGGGSGGGGSGGGGSGGGGSDIVLTQSPASLAVSLGQRATISCRASESVEYYVTSLMQWYQQKPGQPPKLLISAASNVESGVPARFSGSGSGTDFSLNIHPVEEDDIAMYFCQQSRKVPWTFGGGTKLEIKR | binds
2H7-sss-hIgG P238S/P331S-H2-2e12 VHVL (bispecific antibody, Assembled from modules as m11; also called 2H7-sss-hIgG-H2-2e12 HL) QIVLSQSPAILSASPGEKVTMTCRASSSVSYMHWYQQKPGSSPKPWIYAPSNLASGVPARFSGSGSGTSYSLTISRVEAEDAATYYCQQWSFNPPTFGAGTKLELKDGGGSGGGGSGGGGSSQAYLQQSGAESVRPGASVKMSCKASGYTFTSYNMHWVKQTPRQGLEWIGAIYPGNGDTSYNQKFKGKATLTVDKSSSTAYMQLSSLTSEDSAVYFCARVVYYSNSYWYFDVWGTGTTVTVSEPKSSDKTHTSPPSPAPELLGGSSVFLFPPKPKDTLMISRTPEVTCVVVDVSHEDPEVKFNWYVDGVEVHNAKTKPREEQYNSTYRVVSVLTVLHQDWLNGKEYKCKVSNKALPASIEKTISKAKGQPREPQVYTLPPSRDELTKNQVSLTCLVKGFYPSDIAVEWESNGQPENNYKTTPPVLDSDGSFFLYSKLTVDKSRWQQGNVFSCSVMHEALHNHYTQKSLSLSPGKGGGGSGNSQVQLKESGPGLVAPSQSLSITCTVSGFSLTGYGVNWVRQPPGKGLEWLGMIWGDGSTDYNSALKSRLSITKDNSKSQVFLKMNSLQTDDTARYYCARDGYSNFHYYVMDYWGQGTSVTVSSGGGGSGGGGSGGGGSGGGGSDIVLTQSPASLAVSLGQRATISCRASESVEYYVTSLMQWYQQKPGQPPKLLISAASNVESGVPARFSGSGSGTDFSLNIHPVEEDDIAMYFCQQSRKVPWTFGGGTKLEIKR | binds
2H7-sss-hIgG P238S/P331S-H1-2e12 VHVL (bispecific antibody, Assembled from modules as m11; also called 2H7-sss-hIgG-H1-2e12 HL; TRU015-sss-IgG-H1-2e12 HL) QIVLSQSPAILSASPGEKVTMTCRASSSVSYMHWYQQKPGSSPKPWIYAPSNLASGVPARFSGSGSGTSYSLTISRVEAEDAATYYCQQWSFNPPTFGAGTKLELKDGGGSGGGGSGGGGSSQAYLQQSGAESVRPGASVKMSCKASGYTFTSYNMHWVKQTPRQGLEWIGAIYPGNGDTSYNQKFKGKATLTVDKSSSTAYMQLSSLTSEDSAVYFCARVVYYSNSYWYFDVWGTGTTVTVSEPKSSDKTHTSPPSPAPELLGGSSVFLFPPKPKDTLMISRTPEVTCVVVDVSHEDPEVKFNWYVDGVEVHNAKTKPREEQYNSTYRVVSVLTVLHQDWLNGKEYKCKVSNKALPASIEKTISKAKGQPREPQVYTLPPSRDELTKNQVSLTCLVKGFYPSDIAVEWESNGQPENNYKTTPPVLDSDGSFFLYSKLTVDKSRWQQGNVFSCSVMHEALHNHYTQKSLSLSPGKNSQVQLKESGPGLVAPSQSLSITCTVSGFSLTGYGVNWVRQPPGKGLEWLGMIWGDGSTDYNSALKSRLSITKDNSKSQVFLKMNSLQTDDTARYYCARDGYSNFHYYVMDYWGQGTSVTVSSGGGGSGGGGSGGGGSGGGGSDIVLTQSPASLAVSLGQRATISCRASESVEYYVTSLMQWYQQKPGQPPKLLISAASNVESGVPARFSGSGSGTDFSLNIHPVEEDDIAMYFCQQSRKVPWTFGGGTKLEIKR | binds
2H7-sss-hIgG-L6-2e12 (H6 linker, 2e12 VL-VH) (bispecific antibody, Assembled from modules as m10; not shown: human IgG1 CH2-CH3) chain (part 1 of 2): QIVLSQSPAILSASPGEKVTMTCRASSSVSYMHWYQQKPGSSPKPWIYAPSNLASGVPARFSGSGSGTSYSLTISRVEAEDAATYYCQQWSFNPPTFGAGTKLELKDGGGSGGGGSGGGGSSQAYLQQSGAESVRPGASVKMSCKASGYTFTSYNMHWVKQTPRQGLEWIGAIYPGNGDTSYNQKFKGKATLTVDKSSSTAYMQLSSLTSEDSAVYFCARVVYYSNSYWYFDVWGTGTTVTVSEPKSSDKTHTSPPSP chain (part 2 of 2): GGGGSGGGGSGGGGSGNSDIVLTQSPASLAVSLGQRATISCRASESVEYYVTSLMQWYQQKPGQPPKLLISAASNVESGVPARFSGSGSGTDFSLNIHPVEEDDIAMYFCQQSRKVPWTFGGGTKLEIKRGGGGSGGGGSGGGGSQVQLKESGPGLVAPSQSLSITCTVSGFSLTGYGVNWVRQPPGKGLEWLGMIWGDGSTDYNSALKSRLSITKDNSKSQVFLKMNSLQTDDTARYYCARDGYSNFHYYVMDYWGQGTSVTVSS | binds
2H7-sss-hIgG-L5-2e12 (H5 linker, 2e12 VL-VH) (bispecific antibody, Assembled from modules as m10; not shown: human IgG1 CH2-CH3) chain (part 1 of 2): QIVLSQSPAILSASPGEKVTMTCRASSSVSYMHWYQQKPGSSPKPWIYAPSNLASGVPARFSGSGSGTSYSLTISRVEAEDAATYYCQQWSFNPPTFGAGTKLELKDGGGSGGGGSGGGGSSQAYLQQSGAESVRPGASVKMSCKASGYTFTSYNMHWVKQTPRQGLEWIGAIYPGNGDTSYNQKFKGKATLTVDKSSSTAYMQLSSLTSEDSAVYFCARVVYYSNSYWYFDVWGTGTTVTVSEPKSSDKTHTSPPSP chain (part 2 of 2): NYGGGGSGGGGSGNSDIVLTQSPASLAVSLGQRATISCRASESVEYYVTSLMQWYQQKPGQPPKLLISAASNVESGVPARFSGSGSGTDFSLNIHPVEEDDIAMYFCQQSRKVPWTFGGGTKLEIKRGGGGSGGGGSGGGGSQVQLKESGPGLVAPSQSLSITCTVSGFSLTGYGVNWVRQPPGKGLEWLGMIWGDGSTDYNSALKSRLSITKDNSKSQVFLKMNSLQTDDTARYYCARDGYSNFHYYVMDYWGQGTSVTVSS | binds
2H7-sss-hIgG-L4-2e12 (H4 linker, 2e12 VL-VH) (bispecific antibody, Assembled from modules as m10; not shown: human IgG1 CH2-CH3) chain (part 1 of 2): QIVLSQSPAILSASPGEKVTMTCRASSSVSYMHWYQQKPGSSPKPWIYAPSNLASGVPARFSGSGSGTSYSLTISRVEAEDAATYYCQQWSFNPPTFGAGTKLELKDGGGSGGGGSGGGGSSQAYLQQSGAESVRPGASVKMSCKASGYTFTSYNMHWVKQTPRQGLEWIGAIYPGNGDTSYNQKFKGKATLTVDKSSSTAYMQLSSLTSEDSAVYFCARVVYYSNSYWYFDVWGTGTTVTVSEPKSSDKTHTSPPSP chain (part 2 of 2): GGGGSGGGGSGNSDIVLTQSPASLAVSLGQRATISCRASESVEYYVTSLMQWYQQKPGQPPKLLISAASNVESGVPARFSGSGSGTDFSLNIHPVEEDDIAMYFCQQSRKVPWTFGGGTKLEIKRGGGGSGGGGSGGGGSQVQLKESGPGLVAPSQSLSITCTVSGFSLTGYGVNWVRQPPGKGLEWLGMIWGDGSTDYNSALKSRLSITKDNSKSQVFLKMNSLQTDDTARYYCARDGYSNFHYYVMDYWGQGTSVTVSS | binds
2H7-sss-hIgG-L3-2e12 (H3 linker, 2e12 VL-VH) (bispecific antibody, Assembled from modules as m10; not shown: human IgG1 CH2-CH3) chain (part 1 of 2): QIVLSQSPAILSASPGEKVTMTCRASSSVSYMHWYQQKPGSSPKPWIYAPSNLASGVPARFSGSGSGTSYSLTISRVEAEDAATYYCQQWSFNPPTFGAGTKLELKDGGGSGGGGSGGGGSSQAYLQQSGAESVRPGASVKMSCKASGYTFTSYNMHWVKQTPRQGLEWIGAIYPGNGDTSYNQKFKGKATLTVDKSSSTAYMQLSSLTSEDSAVYFCARVVYYSNSYWYFDVWGTGTTVTVSEPKSSDKTHTSPPSP chain (part 2 of 2): NYGGGGSGNSDIVLTQSPASLAVSLGQRATISCRASESVEYYVTSLMQWYQQKPGQPPKLLISAASNVESGVPARFSGSGSGTDFSLNIHPVEEDDIAMYFCQQSRKVPWTFGGGTKLEIKRGGGGSGGGGSGGGGSQVQLKESGPGLVAPSQSLSITCTVSGFSLTGYGVNWVRQPPGKGLEWLGMIWGDGSTDYNSALKSRLSITKDNSKSQVFLKMNSLQTDDTARYYCARDGYSNFHYYVMDYWGQGTSVTVSS | binds
2H7-sss-hIgG-L2-2e12 (H2 linker, 2e12 VL-VH) (bispecific antibody, Assembled from modules as m10; not shown: human IgG1 CH2-CH3) chain (part 1 of 2): QIVLSQSPAILSASPGEKVTMTCRASSSVSYMHWYQQKPGSSPKPWIYAPSNLASGVPARFSGSGSGTSYSLTISRVEAEDAATYYCQQWSFNPPTFGAGTKLELKDGGGSGGGGSGGGGSSQAYLQQSGAESVRPGASVKMSCKASGYTFTSYNMHWVKQTPRQGLEWIGAIYPGNGDTSYNQKFKGKATLTVDKSSSTAYMQLSSLTSEDSAVYFCARVVYYSNSYWYFDVWGTGTTVTVSEPKSSDKTHTSPPSP chain (part 2 of 2): GGGGSGNSDIVLTQSPASLAVSLGQRATISCRASESVEYYVTSLMQWYQQKPGQPPKLLISAASNVESGVPARFSGSGSGTDFSLNIHPVEEDDIAMYFCQQSRKVPWTFGGGTKLEIKRGGGGSGGGGSGGGGSQVQLKESGPGLVAPSQSLSITCTVSGFSLTGYGVNWVRQPPGKGLEWLGMIWGDGSTDYNSALKSRLSITKDNSKSQVFLKMNSLQTDDTARYYCARDGYSNFHYYVMDYWGQGTSVTVSS | binds
